Laboratory results taken from patent US20260116966A1 (KEYMED BIOSCIENCES CHENGDU, published 2026).
Positions count from the first letter of the chain named.

B1: 2E1 × CD3 GPRC5D×CD3 κλ bispecific antibody (bispecific antibody, human IgG4, V domains shown)
VH 1: QVQLVQSGAEVKKPGSSVKVSCKASGYTFTRYWMHWVREAPGQGLEWMGEFNPSNGRINYNEKFQGRVTLTIDKSSSTAYMELSSLRSEDTAVYYCTRGFAYWGQGTLVTVSS
VL 1: EIVLTQSPATLSLSPGERATLSCRASSTVSYIHWYQKKPGQAPRRLIYDTSKLASGIPARFSGSGSGTDYTLTISSLEPEDFAVYYCQQWTTNPWTFGGGTKVEIK
VH 2: EVQLVESGGGLVQPGGSLRLSCAASGFTFNTYAMNWVRKAPGKGLEWVGRIRSKYNNYATYYADSVKDRFTISRDDSKNSLYLQMNSLKTEDTAVYYCVRHGNFGNSYVSWFAYWGQGTLVTVSS
VL 2: QAVVTQEPSLTVSPGGTVTLTCRSSTGAVTTSNYANWVQEKPGQAPRGLIGGTNKRAPWTPARFSGSLLGGKAALTITGAQAEDEAEYYCVLWYSNLWVFGGGTKLTVL
notes: Human IgG4 knob-into-hole Fc with Ser228Pro, Leu235Glu, Pro329Ala; kappa light chain on the GPRC5D arm, lambda on the CD3 arm
B2: 4B1 × CD3 GPRC5D×CD3 κλ bispecific antibody (bispecific antibody, human IgG4, V domains shown)
VH 1: QAQLVQSGAEVKKPGSSVKVSCKASGYTFTSYNMHWVREAPGQGLEWMGYIYPGNGGTNYNQKFQGRVTLTADTSSSTAYMELSSLRSEDTAVYFCARGYGYRYWYFDVWGQGTLVTVSS
VL 1: B1 VL 1 with T28S, I32M, T91S, T92N, N93Y, W95P
VH 2: B1 VH 2
VL 2: B1 VL 2
notes: Human IgG4 knob-into-hole Fc with Ser228Pro, Leu235Glu, Pro329Ala
B3: 2F1 × CD3 GPRC5D×CD3 κλ bispecific antibody (bispecific antibody, human IgG4 S228P, kappa, lambda)
heavy 1: QVQLVQSGAEVKKPGSSVKVSCKASGYSFTGYTMNWVREAPGQGLEWMGLINPYNGGTRYNQKFQGRVTLTVDKSSSTAYMELSSLRSEDTAVYYCARWALRYGMDYWGQGTLVTVSSASTKGPSVFPLAPCSRSTSESTAALGCLVKDYFPEPVTVSWNSGALTSGVHTFPAVLQSSGLYSLSSVVTVPSSSLGTKTYTCNVDHKPSNTKVDKRVESKYGPPCPPCPAPEFEGGPSVFLFPPKPKDTLMISRTPEVTCVVVDVSQEDPEVQFNWYVDGVEVHNAKTKPREEQFNSTYRVVSVLTVLHQDWLNGKEYKCKVSNKGLASSIEKTISKAKGQPREPQVCTLPPSQEEMTKNQVSLSCAVKGFYPSDIAVEWESNGQPENNYKTTPPVLDSDGSFFLVSKLTVDKSRWQEGNVFSCSVMHEALHNHYTQKSLSLSLGK
light 1: DIQMTQSPSSLSASVGDRVTITCRASQNVGTNVAWYQKKPGKAPKALIYSASYRNSGVPSRFSGSGSGTDFTLTISSLQPEDFATYFCQQYNSYLLTFGGGTKVEIKRTVAAPSVFIFPPSDEQLKSGTASVVCLLNNFYPREAKVQWKVDNALQSGNSQESVTEQDSKDSTYSLSSTLTLSKADYEKHKVYACEVTHQGLSSPVTKSFNRGEC
heavy 2: EVQLVESGGGLVQPGGSLRLSCAASGFTFNTYAMNWVRKAPGKGLEWVGRIRSKYNNYATYYADSVKDRFTISRDDSKNSLYLQMNSLKTEDTAVYYCVRHGNFGNSYVSWFAYWGQGTLVTVSSASTKGPSVFPLAPCSRSTSESTAALGCLVKDYFPEPVTVSWNSGALTSGVHTFPAVLQSSGLYSLSSVVTVPSSSLGTKTYTCNVDHKPSNTKVDKRVESKYGPPCPPCPAPEFEGGPSVFLFPPKPKDTLMISRTPEVTCVVVDVSQEDPEVQFNWYVDGVEVHNAKTKPREEQFNSTYRVVSVLTVLHQDWLNGKEYKCKVSNKGLASSIEKTISKAKGQPREPQVYTLPPCQEEMTKNQVSLWCLVKGFYPSDIAVEWESNGQPENNYKTTPPVLDSDGSFFLYSKLTVDKSRWQEGNVFSCSVMHEALHNHYTQKSLSLSLGK
light 2: QAVVTQEPSLTVSPGGTVTLTCRSSTGAVTTSNYANWVQEKPGQAPRGLIGGTNKRAPWTPARFSGSLLGGKAALTITGAQAEDEAEYYCVLWYSNLWVFGGGTKLTVLGQPKAAPSVTLFPPSSEELQANKATLVCLISDFYPGAVTVAWKADSSPVKAGVETTTPSKQSNNKYAASSYLSLTPEQWKSHRSYSCQVTHEGSTVEKTVAPTECS
notes: Human IgG4 knob-into-hole, Ser228Pro, Leu235Glu, Pro329Ala; also called parent 2F1×CD3 bispecific antibody
B4: anti-GPRC5D chimeric antibody 18C3 (antibody, V domains shown)
VH: EVQLVESGGDLVKPGGSLKLSCAASGFTFSSYGMSWVRQTPDKRLEWVATISSGGSYTYYPDSVKGRFTISRDNAKNTLYLQMSSLKSEDTAMYYCARHEARATFDYWGQGTTLTVSS
VL: DIVMTQAAPSVPVTPGESVSISCRSSKSLLHSNGNTYLYWFLQRPGQSPQLLIYRMSNLASGVPDRFSGSGSGTAFTLRISRVEAEDVGVYYCMQHLEYPFTFGSGTKLEIK
B5: anti-GPRC5D chimeric antibody 8C2 (antibody, V domains shown)
VH: EVQLVESGGDLVKPGGSLKLSCAASGFTFSSYGMSWVRQTPDKRLEWVATISSGGSYTYYPDSVKGRFTISRDNAKNTLYLQMSSLKSEDTAMYYCARHGGSSSYVMDYWGQGTSVTVSS
VL: B4 VL
B6: anti-GPRC5D chimeric antibody 18E7 (antibody, V domains shown)
VH: EVQLQQSGPELVKPGASVKMSCKASEYTFTNYVMYWVKQKPGQGLEWIGYINPYNDGTKYNEKFKGKATLTSDKSSSTAYMELSSLTSEDSAVYYCVRGGMLTTRSLFAYWGQGTLVTVSA
VL: DIQMTQSPSSLSASLGERVSLTCRASQRISGYLSWLQQKPDGTIKRLIYAASTLDSGVPKRFSGSRSGSDYSLTISSLESEDFADYYCLQYASYPPTFGGGTKLEIK
B7: anti-GPRC5D chimeric antibody 17D12 (antibody, V domains shown)
VH: B6 VH with E26G, N31S, G44V, K63R, K65T, V97A, A109L
VL: B6 VL with Q3V, T5S, R28E, L33F
B8: anti-GPRC5D chimeric antibody 15H5 (antibody, V domains shown)
VH: B6 VH with K23M, E26G, N31S, V97A, A109V, Q113H
VL: B6 VL with R28E, F98Y
B9: anti-GPRC5D chimeric antibody 15A6 (antibody, V domains shown)
VH: B6 VH with E26G, G44V, K65T, V97A, A109V
VL: B6 VL with R28E, L33F
B10: anti-GPRC5D chimeric antibody 12A4 (antibody, V domains shown)
VH: B6 VH with A109T
VL: B6 VL
B11: anti-GPRC5D chimeric antibody 14D1 (antibody, V domains shown)
VH: B6 VH with E10D, E26G, T28K, N31S, P41T, L83F
VL: B6 VL with R28E, L33F
B12: anti-GPRC5D chimeric antibody 19E2 (antibody, V domains shown)
VH: B6 VH
VL: B6 VL with S93N
B13: anti-GPRC5D chimeric antibody 1C1 (antibody, V domains shown)
VH: QAYLQQSGAELVRSGASVKMSCKASGYTFTSYNMHWVKQTPGQGLEWIGYIYPGNGGTNYNQKFKAKATLTADTSSSTAYMQISSLTSEDSAVYFCARGYGYRYWYFDVWGAGTTVTVSS
VL: NIVLTQSPAIMSASPGEKVTMTCSASSSVRFMHWYQQKSGTSPKRWIYDTSKVASGVPARFSGSGSGTSYSLTIRSMEAEDAATYYCQQWSSNPLTFGAGTKLELK
B14: anti-GPRC5D chimeric antibody 10B1 (antibody, V domains shown)
VH: QVQLQQSGAELARPGASVKMSCKASGYIFTSYTMYWVKQRPGQGLEWIGYINPSSGYTNYNQKFKDKATLTADKSSSTAYMQLSSLTSEDSAVYYCARWGGNERLYYYAMDYWGQGTSVTVSS
VL: QIVLTQSPAIMSASPGEKVTITCSASSSVSYMYWFQQKPGTSPKLWIYGTSNLASGVPARFSGSGSGTSYSLTISRMEAEDAATYYCQQRSSYPLTFGAGTKLELK
B15: anti-GPRC5D chimeric antibody 10E8 (antibody, V domains shown)
VH: EVQLQQSGPELVKPGASMKISCKASGYSFTGYTMNWVKQRHGKNLEWIGLINPYNGGTSYNQKFKGKATLTVDKSSSTAYMELLSLTSEDSAVYYCARLPIRNGMDYWGQGTSVTVSS
VL: DIVLTQSPATLSVTPGDSVSLSCRASQSISNNLHWYQQKSHESPRLLVKFASLSISGIPSRFSGSGSGTDFTLSINSVETEDFGMYFCQQSNSWPQTFGGGTKLEIK
B16: anti-GPRC5D chimeric antibody 22C1 (antibody, V domains shown)
VH: B15 VH with A16T, R40S, T58S, S59N, Q62L, S77N, L99W, P100G, I101L, G104A
VL: B15 VL with L4V, Y36F, V48I, F50Y, L53Q

Target: T1, human GPRC5D (human, UniProt Q9NZD1 1-345)
Assay: cell-based or functional assay

T1 sequence (Q9NZD1 whole entry): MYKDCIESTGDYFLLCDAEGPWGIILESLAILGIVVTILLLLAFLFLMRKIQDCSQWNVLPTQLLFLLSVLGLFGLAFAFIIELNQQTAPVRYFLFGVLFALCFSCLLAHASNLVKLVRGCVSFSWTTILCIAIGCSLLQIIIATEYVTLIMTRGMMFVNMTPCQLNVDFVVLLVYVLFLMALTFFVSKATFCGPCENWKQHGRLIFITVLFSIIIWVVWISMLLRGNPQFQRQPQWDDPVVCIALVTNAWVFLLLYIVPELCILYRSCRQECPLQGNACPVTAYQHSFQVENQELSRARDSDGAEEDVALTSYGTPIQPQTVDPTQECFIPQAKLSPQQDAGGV

Question: B1 was tested. Which “TDCC EC50 (pM), MM.1R” value did it give?
Answer: The value was 161 pM.

Question: With B2 as the binder, how does the “TDCC EC50 (pM), MM.1R” value read?
Answer: Its value is 6.95 pM.

Question: B3 was tested. Which “TDCC EC50 (pM), MM.1R” value did it give?
Answer: Its value is 0.65 pM.

Target: T1, human GPRC5D
Assay: flow cytometry, MM.1R cells
Experimental: The cell suspension was adjusted to a concentration of 5×10⁵ cells/mL, and 100 μL per well was added to a 96-well U-shaped plate, centrifuged at 300 g for 5 min. The supernatant was discarded. 100 μL per well of serially diluted antibody was added (initial concentration: 200 nM, 3-fold dilution, 10 gradients), and incubated at 4° C. for 60 min. The primary antibody was washed away, and 50 μL/well Alexa Fluro647 labeled goat anti-human IgG FC (1:300 dilution) was added, and incubated for 20 min. After washing once, 50 μL/well of PI was added, incubated for 5 min, and detected by flow cytometry.

Question: Which results are given for B1?
Answer: EC50: 6.88 nM; Maximum fluorescence intensity (MFI, 200 nM): 65700 MFI

Question: With B2 as the binder, how does the EC50 read?
Answer: Its EC50 is 3.35 nM.

Question: And the “Maximum fluorescence intensity (MFI, 200 nM)” value?
Answer: The value was 70900 MFI.

Question: How did the EC50 turn out when B3 was run?
Answer: Its EC50 is 1.51 nM.

Question: And the “Maximum fluorescence intensity (MFI, 200 nM)” value?
Answer: The value was 94600 MFI.

Target: T2, Cynomolgus GPRC5D (Cynomolgus, UniProt Q9NZD1 1-343 (human entry))
T2 construct: Full length, on stably transfected cells (HEK293-cyGPRC5D, CHO-cyGPRC5D); also called cyGPRC5D
T2 chain: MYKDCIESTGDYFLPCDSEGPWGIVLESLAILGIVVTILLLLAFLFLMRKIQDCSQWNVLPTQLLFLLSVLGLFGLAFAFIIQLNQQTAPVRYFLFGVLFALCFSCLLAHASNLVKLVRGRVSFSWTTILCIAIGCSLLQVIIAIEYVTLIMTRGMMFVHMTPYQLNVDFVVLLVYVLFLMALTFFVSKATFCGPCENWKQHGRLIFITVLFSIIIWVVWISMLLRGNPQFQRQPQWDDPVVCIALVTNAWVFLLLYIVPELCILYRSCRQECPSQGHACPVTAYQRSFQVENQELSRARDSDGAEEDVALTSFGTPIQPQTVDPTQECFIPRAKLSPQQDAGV
Assay: flow cytometry, CHO-cyGPRC5D cells
Experimental: (§1) The binding of the antibodies to human and Cynomolgus GPRC5D stably transfected cells was detected by flow cytometry. […] Then, 100 μl/well of the cell suspension was added to a 96-well U-shaped plate, and centrifuged at 300 g for 5 min. The supernatant was discarded. 100 μL per well of serially diluted antibody was added (initial concentration: 200 nM, 3-fold dilution, 12 gradients), and incubated at 4° C. for 45 min. The secondary antibody 50 μL/well of Alexa Fluro647 labeled goat anti-human IgG Fc (1:300 dilution) was added, incubated on ice for 45 min, and detected by flow cytometry.

Question: Does B4 bind?
Answer: Result: binds

Question: Does B5 bind?
Answer: Result: binds

Question: Does B6 bind?
Answer: Result: binds

Question: Does B7 bind?
Answer: Result: binds

Question: Does B8 bind?
Answer: Result: binds

Question: Does B9 bind?
Answer: Result: binds

Question: Does B10 bind?
Answer: Result: binds

Question: Does B11 bind?
Answer: Result: binds

Question: Does B12 bind?
Answer: Result: binds

Question: Does B13 bind?
Answer: Result: binds

Question: Does B14 bind?
Answer: Result: binds

Question: Does B15 bind?
Answer: Result: binds

Question: Does B16 bind?
Answer: Result: binds

Target: T1, human GPRC5D
Assay: flow cytometry on CHO-hGPRC5D cells
Experimental: as §1

Question: Does B4 bind?
Answer: Result: binds

Question: Does B5 bind?
Answer: Result: binds

Question: Does B6 bind?
Answer: Result: binds

Question: Does B7 bind?
Answer: Result: binds

Question: Does B8 bind?
Answer: Result: binds

Question: Does B9 bind?
Answer: Result: binds

Question: Does B10 bind?
Answer: Result: binds

Question: Does B11 bind?
Answer: Result: binds

Question: Does B12 bind?
Answer: Result: binds

Question: Does B13 bind?
Answer: Result: binds

Question: Does B14 bind?
Answer: Result: binds

Question: Does B15 bind?
Answer: Result: binds

Question: Does B16 bind?
Answer: Result: binds
